B1: rOrLcc2-L497V (variant rOrLcc2-D206N) (Obba rivulosa; D227N/L518V) (protein)
chain: AIGPVTDLTITDVSISPDGFERAAVLAGGTFPGPLITGNIGDNFQINVVNQLSNETMLESTTIHWHGLFQKGTAWADGPAFVSQCPIATGNSFLYDFSVPDQAGTFWYHSHLATQYCDGLRGPLVVYDPNDAYLSDYDVDDDTTVITLADWYHTAATLGPRFPTQADATLINGLGRYSGGPESNLTVITVESGKRYRFRLVSISCNENYVFSIDDHEMIVIEADGVETQPVTVDSIQIFAAQRYSFILNATEAVDNYWIRATPDLGTTGFTDGINSAILRYVGANDTDPTTASNTTNLLSELDLHPLTNAAAPGAASQDPGSVDVSMNLELGFDGTNFTINGATFVPPTVPVLLQILSGAQSATDLLPSGSVFTLPSNSTVQVTLAAGTVAGGPHPFHLHGHTFSVVRSAGSDTYNYDNPVQRDTVSIGADGDNVTIRFDTNNPGPWFLHCHIDWHLNAGFAIVFAEDTADIASANPVPDSWSDLCPTYDALPSDEV
notes: codon-optimized cDNA in pPicZalphaA, C-terminal L497V to remove possible ER-retention signal SDEL, secreted from Pichia pastoris X-33, purified in two steps
B2: rOrLcc1 (variant rOrLcc1-D208N) (Obba rivulosa; D229N) (protein)
chain: AIGPVTDLVITDAFVTPDGPNLGREAVLAGGTFPGPLIQGNKGDNFQINVVNNLTNHTMLKTTSIHWHGLFQHGTNWADGPAFVNQCPIASGNSFLYNFNVPDQAGTFWYHSHLATQYCDGLRGPLVVYDPNDPYADLYDVDDESTVITLSDWYHAAASTLTFPTFDTTLINGLGRFAGTGGTDSDLAVITVEQGKRYRFRLAAISCNPNWVFSIDEHVMTIIEADAVNTLPLTVDAIQIFAAQRYSFVLNANQTVGNYWIRANPNNGNMGFANGINSAILRYSGATIEDPTTNSTIVNQLNEADLSPLTNPQAPGAPSQDPGAVDVAMNLAFSFNGTRLFINGVSFVPPSVPVLLQILSGSMTAQDLLPTGSVYTLPRNATVQISMPGNIIAGPHPFHLHGHTFSVIRSAGESDYNYDNPVQRDTVSIGGATDNVTIRFTTNNPGPWFLHCHIDWHLQAGFAIVFAEDTPDIASANPVPQAWSDLCPTYDALDPSDT
notes: codon-optimized cDNA in pPicZalphaA, secreted from Pichia pastoris X-33, purified in two steps

Substrate: COc1cccc(OC)c1O
Test: purified protein
Type: biochemical, Obba rivulosa
Settings: O2 co-substrate, error is 95% confidence interval
[1] = pH 6.0, citrate phosphate buffer, 0-2 mM substrate
[2] = pH 3.5, citrate phosphate buffer, 0-31 mM substrate

Protein | Km [1] [µM] | Vmax [1] [µM/min] | kcat [1] [s⁻¹] | kcat/Km [1] [M⁻¹ s⁻¹] | Km [2] [µM] | Vmax [2] [µM/min] | kcat [2] [s⁻¹] | kcat/Km [2] [M⁻¹ s⁻¹]
B1 | 38 ± 0 | 150 | 112 | 2.95e+06 |  |  |  | 
B2 |  |  |  |  | 3668 ± 270 | 216 | 44 | 12000
